Data from patent publication US20220048967A1 (published 2022).
Changes are numbered by the printed parent chain. Numbered stars: 1 amine (or outer) side, 2 acyl side, 3 side chain; on linkers, the order of the positions; unused ones are H or OH. Square brackets hold non-standard residues; d marks the D form. Side chains are listed from the residue outwards. Ends that are not written are not given here. * marks the point of attachment. C20 diacid = O=C(O)CCCCCCCCCCCCCCCCCCC(=O)*; C18 diacid = O=C(O)CCCCCCCCCCCCCCCCC(=O)*; αMePhe(2-F) = C[C@](N)(Cc1ccccc1F)C(=O)O; γGlu = O=C(O)[C@H](CCC(=O)[*:2])N[*:1]; αMeF = C[C@](N)(Cc1ccccc1)C(=O)O; AEEA = NCCOCCOCC(=O)O; Aib = CC(C)(N)C(=O)O

T1: human gastric inhibitory peptide receptor (GIPR) (human, UniProt P48546 22-466)
T1 sequence (looked up): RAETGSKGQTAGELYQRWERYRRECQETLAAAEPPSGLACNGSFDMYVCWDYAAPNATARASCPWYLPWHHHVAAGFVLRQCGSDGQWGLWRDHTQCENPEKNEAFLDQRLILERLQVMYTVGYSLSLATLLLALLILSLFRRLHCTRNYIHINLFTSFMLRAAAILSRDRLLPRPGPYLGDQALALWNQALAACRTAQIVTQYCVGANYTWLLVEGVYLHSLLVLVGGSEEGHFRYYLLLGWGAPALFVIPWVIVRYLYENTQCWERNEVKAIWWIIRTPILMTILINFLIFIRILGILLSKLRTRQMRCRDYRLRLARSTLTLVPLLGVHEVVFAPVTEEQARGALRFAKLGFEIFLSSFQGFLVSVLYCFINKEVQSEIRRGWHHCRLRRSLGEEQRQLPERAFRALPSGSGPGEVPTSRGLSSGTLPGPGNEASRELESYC

B1: Example 166 (peptide)
peptide: Y[Aib]EGT[αMePhe(2-F)]TSDHSI[αMeF]LDEK([AEEA-AEEA-γGlu-C20 diacid])AQ[Aib]TFI[dE]YLIEGG-NH2
modifications: N-terminus assumed
SMILES: CC[C@H](C)[C@H](NC(=O)[C@H](CC(C)C)NC(=O)[C@H](Cc1ccc(O)cc1)NC(=O)[C@@H](CCC(=O)O)NC(=O)[C@@H](NC(=O)[C@H](Cc1ccccc1)NC(=O)[C@@H](NC(=O)C(C)(C)NC(=O)[C@H](CCC(N)=O)NC(=O)[C@H](C)NC(=O)[C@H](CCCCNC(=O)COCCOCCNC(=O)COCCOCCNC(=O)CC[C@H](NC(=O)CCCCCCCCCCCCCCCCCCC(=O)O)C(=O)O)NC(=O)[C@H](CCC(=O)O)NC(=O)[C@H](CC(=O)O)NC(=O)[C@H](CC(C)C)NC(=O)[C@](C)(Cc1ccccc1)NC(=O)[C@@H](NC(=O)[C@H](CO)NC(=O)[C@H](Cc1c[nH]cn1)NC(=O)[C@H](CC(=O)O)NC(=O)[C@H](CO)NC(=O)[C@@H](NC(=O)[C@](C)(Cc1ccccc1F)NC(=O)[C@@H](NC(=O)CNC(=O)[C@H](CCC(=O)O)NC(=O)C(C)(C)NC(=O)[C@@H](N)Cc1ccc(O)cc1)[C@@H](C)O)[C@@H](C)O)[C@@H](C)CC)[C@@H](C)O)[C@@H](C)CC)C(=O)N[C@@H](CCC(=O)O)C(=O)NCC(=O)NCC(N)=O
B2: Example 167 (peptide)
peptide: Y[Aib]EGT[αMePhe(2-F)]TSDHSI[αMeF]LDEK([AEEA-AEEA-γGlu-C20 diacid])AQ[Aib]TFI[dE]YLIEGGPSSG-NH2
modifications: N-terminus assumed
SMILES: CC[C@H](C)[C@H](NC(=O)[C@H](CC(C)C)NC(=O)[C@H](Cc1ccc(O)cc1)NC(=O)[C@@H](CCC(=O)O)NC(=O)[C@@H](NC(=O)[C@H](Cc1ccccc1)NC(=O)[C@@H](NC(=O)C(C)(C)NC(=O)[C@H](CCC(N)=O)NC(=O)[C@H](C)NC(=O)[C@H](CCCCNC(=O)COCCOCCNC(=O)COCCOCCNC(=O)CC[C@H](NC(=O)CCCCCCCCCCCCCCCCCCC(=O)O)C(=O)O)NC(=O)[C@H](CCC(=O)O)NC(=O)[C@H](CC(=O)O)NC(=O)[C@H](CC(C)C)NC(=O)[C@](C)(Cc1ccccc1)NC(=O)[C@@H](NC(=O)[C@H](CO)NC(=O)[C@H](Cc1c[nH]cn1)NC(=O)[C@H](CC(=O)O)NC(=O)[C@H](CO)NC(=O)[C@@H](NC(=O)[C@](C)(Cc1ccccc1F)NC(=O)[C@@H](NC(=O)CNC(=O)[C@H](CCC(=O)O)NC(=O)C(C)(C)NC(=O)[C@@H](N)Cc1ccc(O)cc1)[C@@H](C)O)[C@@H](C)O)[C@@H](C)CC)[C@@H](C)O)[C@@H](C)CC)C(=O)N[C@@H](CCC(=O)O)C(=O)NCC(=O)NCC(=O)N1CCC[C@H]1C(=O)N[C@@H](CO)C(=O)N[C@@H](CO)C(=O)NCC(N)=O
B3: Example 168 (peptide)
peptide: YXEGTXTSDHSIXLDEKAQXTFIXYLIEGGPSSGAPPPS
modifications: Y-Aib-EGT-αMeF(2F)-TSDHSI-αMeF-LDEK((2-[2-(2-Amino-ethoxy)-ethoxy]-acetyl)2-(γ-Glu)-CO-(CH2)18-CO2H)AQ-Aib-TFI-(D-Glu)-YLIEGGPSSGAPPPS-NH2
B4: Example 169 (peptide)
peptide: B3 peptide
modifications: Y-Aib-EGT-αMeF(2F)-TSDHSI-αMeF-LDEK((2-[2-(2-Amino-ethoxy)-ethoxy]-acetyl)2-(γ-Glu)-CO-(CH2)16-CO2H)AQ-Aib-TFI-(D-Glu)-YLIEGGPSSGAPPPS-NH2
B5: Example 170 (peptide)
peptide: B3 peptide
modifications: Y-Aib-EGT-αMeF(2F)-TSDHSI-αMeF-LDEK((2-[2-(2-Amino-ethoxy)-ethoxy]-acetyl)2-(γ-Glu)-CO-(CH2)14-CO2H)AQ-Aib-TFI-(D-Glu)-YLIEGGPSSGAPPPS-NH2
B6: Example 171 (peptide)
peptide: B3 peptide with E16X
modifications: Y-Aib-EGT-αMeF(2F)-TSDHSI-αMeF-LD-Orn-K((2-[2-(2-Amino-ethoxy)-ethoxy]-acetyl)2-(γ-Glu)-CO-(CH2)18-CO2H)AQ-Aib-TFI-(D-Glu)-YLIEGGPSSGAPPPS-NH2
B7: Example 172 (peptide)
peptide: B3 peptide with E16X
modifications: Y-Aib-EGT-αMeF(2F)-TSDHSI-αMeF-LD-Dab-K((2-[2-(2-Amino-ethoxy)-ethoxy]-acetyl)2-(γ-Glu)-CO-(CH2)18-CO2H)AQ-Aib-TFI-(D-Glu)-YLIEGGPSSGAPPPS-NH2
B8: Example 173 (peptide)
peptide: B3 peptide with E16X
modifications: Y-Aib-EGT-αMeF(2F)-TSDHSI-αMeF-LD-Dap-K((2-[2-(2-Amino-ethoxy)-ethoxy]-acetyl)2-(γ-Glu)-CO-(CH2)18-CO2H)AQ-Aib-TFI-(D-Glu)-YLIEGGPSSGAPPPS-NH2
B9: Example 174 (peptide)
peptide: B3 peptide
modifications: Y-Aib-EGT-αMeF(2F)-TSDHSI-αMeF-LDEK((2-[2-(2-Amino-ethoxy)-ethoxy]-acetyl)2-CO-(CH2)18-CO2H)AQ-Aib-TFI-(D-Glu)-YLIEGGPSSGAPPPS-NH2
B10: Example 175 (peptide)
peptide: B3 peptide
modifications: Y-Aib-EGT-αMeF(2F)-TSDHSI-αMeF-LDEK((2-[2-(2-Amino-ethoxy)-ethoxy]-acetyl)2-(ϵK)-CO-(CH2)18-CO2H)AQ-Aib-TFI-(D-Glu)-YLIEGGPSSGAPPPS-NH2
B11: Example 176 (peptide)
peptide: B3 peptide
modifications: Y-Aib-EGT-αMeF(2F)-TSDHSI-αMeF-LDEK((2-[2-(2-Amino-ethoxy)-ethoxy]-acetyl)2-(ϵK)-CO-(CH2)16-CO2H)AQ-Aib-TFI-(D-Glu)-YLIEGGPSSGAPPPS-NH2
B12: Example 177 (peptide)
peptide: B3 peptide with T21H
modifications: Y-Aib-EGT-αMeF(2F)-TSDHSI-αMeF-LDEK((2-[2-(2-Amino-ethoxy)-ethoxy]-acetyl)2-(γ-Glu)-CO-(CH2)16-CO2H)AQ-Aib-HFI-(D-Glu)-YLIEGGPSSGAPPPS-NH2
B13: Example 178 (peptide)
peptide: B3 peptide with T21H
modifications: Y-Aib-EGT-αMeF(2F)-TSDHSI-αMeF-LDEK((2-[2-(2-Amino-ethoxy)-ethoxy]-acetyl)2-(γ-Glu)-CO-(CH2)14-CO2H)AQ-Aib-HFI-(D-Glu)-YLIEGGPSSGAPPPS-NH2
B14: Example 179 (peptide)
peptide: Y[Aib]EGT[αMePhe(2-F)]TSDHSI[αMeF]LDEK([AEEA-AEEA-γGlu-C18 diacid])AQ[Aib]HFI[dE]YLIEGGPSSG-NH2
modifications: N-terminus assumed
SMILES: CC[C@H](C)[C@H](NC(=O)[C@H](CC(C)C)NC(=O)[C@H](Cc1ccc(O)cc1)NC(=O)[C@@H](CCC(=O)O)NC(=O)[C@@H](NC(=O)[C@H](Cc1ccccc1)NC(=O)[C@H](Cc1c[nH]cn1)NC(=O)C(C)(C)NC(=O)[C@H](CCC(N)=O)NC(=O)[C@H](C)NC(=O)[C@H](CCCCNC(=O)COCCOCCNC(=O)COCCOCCNC(=O)CC[C@H](NC(=O)CCCCCCCCCCCCCCCCC(=O)O)C(=O)O)NC(=O)[C@H](CCC(=O)O)NC(=O)[C@H](CC(=O)O)NC(=O)[C@H](CC(C)C)NC(=O)[C@](C)(Cc1ccccc1)NC(=O)[C@@H](NC(=O)[C@H](CO)NC(=O)[C@H](Cc1c[nH]cn1)NC(=O)[C@H](CC(=O)O)NC(=O)[C@H](CO)NC(=O)[C@@H](NC(=O)[C@](C)(Cc1ccccc1F)NC(=O)[C@@H](NC(=O)CNC(=O)[C@H](CCC(=O)O)NC(=O)C(C)(C)NC(=O)[C@@H](N)Cc1ccc(O)cc1)[C@@H](C)O)[C@@H](C)O)[C@@H](C)CC)[C@@H](C)CC)C(=O)N[C@@H](CCC(=O)O)C(=O)NCC(=O)NCC(=O)N1CCC[C@H]1C(=O)N[C@@H](CO)C(=O)N[C@@H](CO)C(=O)NCC(N)=O
B15: Example 180 (peptide)
peptide: Y[Aib]EGT[αMePhe(2-F)]TSDHSI[αMeF]LDEK([AEEA-AEEA-γGlu-C18 diacid])AQ[Aib]HFI[dE]YLIEGG-NH2
modifications: N-terminus assumed
SMILES: CC[C@H](C)[C@H](NC(=O)[C@H](CC(C)C)NC(=O)[C@H](Cc1ccc(O)cc1)NC(=O)[C@@H](CCC(=O)O)NC(=O)[C@@H](NC(=O)[C@H](Cc1ccccc1)NC(=O)[C@H](Cc1c[nH]cn1)NC(=O)C(C)(C)NC(=O)[C@H](CCC(N)=O)NC(=O)[C@H](C)NC(=O)[C@H](CCCCNC(=O)COCCOCCNC(=O)COCCOCCNC(=O)CC[C@H](NC(=O)CCCCCCCCCCCCCCCCC(=O)O)C(=O)O)NC(=O)[C@H](CCC(=O)O)NC(=O)[C@H](CC(=O)O)NC(=O)[C@H](CC(C)C)NC(=O)[C@](C)(Cc1ccccc1)NC(=O)[C@@H](NC(=O)[C@H](CO)NC(=O)[C@H](Cc1c[nH]cn1)NC(=O)[C@H](CC(=O)O)NC(=O)[C@H](CO)NC(=O)[C@@H](NC(=O)[C@](C)(Cc1ccccc1F)NC(=O)[C@@H](NC(=O)CNC(=O)[C@H](CCC(=O)O)NC(=O)C(C)(C)NC(=O)[C@@H](N)Cc1ccc(O)cc1)[C@@H](C)O)[C@@H](C)O)[C@@H](C)CC)[C@@H](C)CC)C(=O)N[C@@H](CCC(=O)O)C(=O)NCC(=O)NCC(N)=O
B16: Example 181 (peptide)
peptide: B3 peptide with H10X, T21E
modifications: Y-Aib-EGT-αMeF(2F)-TSD-3Pal-SI-αMeF-LDEK((2-[2-(2-Amino-ethoxy)-ethoxy]-acetyl)2-(γ-Glu)-CO-(CH2)18-CO2H)AQ-Aib-EFI-(D-Glu)-YLIEGGPSSGAPPPS-NH2
B17: Example 182 (peptide)
peptide: B3 peptide with H10X, T21E
modifications: Y-Aib-EGT-αMeF(2F)-TSD-4Pal-SI-αMeF-LDEK((2-[2-(2-Amino-ethoxy)-ethoxy]-acetyl)2-(γ-Glu)-CO-(CH2)18-CO2H)AQ-Aib-EFI-(D-Glu)-YLIEGGPSSGAPPPS-NH2
B18: Example 183 (peptide)
peptide: B3 peptide with H10L, T21E
modifications: Y-Aib-EGT-αMeF(2F)-TSDLSI-αMeF-LDEK((2-[2-(2-Amino-ethoxy)-ethoxy]-acetyl)2-(γ-Glu)-CO-(CH2)18-CO2H)AQ-Aib-EFI-(D-Glu)-YLIEGGPSSGAPPPS-NH2

biological target: human GLP-1 receptor (GLP-1R) (human, UniProt P43220 24-463); assay: cell-based or functional assay

Binder	hGLP1R cAMP EC50 ratio	hGLP1R cAMP Rel EC50
B1	0.0143	4080 pM
B2	0.0487	1200 pM
B3	0.0323	1800 pM
B4	0.0136	3370 pM
B5	0.00438	10400 pM
B6	0.0609	750 pM
B7	0.038	1200 pM
B8	0.0373	1230 pM
B9	0.0968	472 pM
B10	0.0412	1110 pM
B11	0.0427	1070 pM
B12	0.00673	6790 pM
B13	0.00349	13100 pM
B14	0.0169	2700 pM
B15	0.0212	2160 pM
B16	0.718	59.2 pM
B17	0.873	46.3 pM
B18	0.843	55.1 pM

biological target: T1, human gastric inhibitory peptide …; assay: cell-based or functional assay

Binder	hGIPR cAMP EC50 ratio	hGIPR cAMP Rel EC50
B1	0.504	355 pM
B2	0.291	617 pM
B3	0.313	572 pM
B4	0.122	860 pM
B5	0.185	569 pM
B6	0.471	223 pM
B7	0.1	1050 pM
B8	0.179	586 pM
B9	0.483	217 pM
B10	1.19	88.1 pM
B11	0.201	523 pM
B12	0.0749	1400 pM
B13	0.0341	3080 pM
B14	0.0575	1830 pM
B15	0.133	790 pM
B16	4.1	45.9 pM
B17	4.37	44.2 pM
B18	3.1	61.5 pM
